This is an account of results in patent US7285380B2, “Methods of producing polyketide synthase mutants and compositions and uses thereof” (The Salk Institute for Biological Studies, priority 2000, dated 2007).

Entries after “also recorded” stand apart in the source; their conditions may differ.

The nature of data set [1]: TLC-based radiometric assay of product formation by 2-PS, CHS and CHS mutants (LC/MS confirmation). As to conditions: for product formed: 100 mM Hepes pH 7.0, 30 μM starter-CoA, 60 μM [14C]-malonyl-CoA, 25° C. In kind it is biochemical. The source says:
Comparison of the initiation/elongation cavities of 2-PS (SEQ ID NO:68) and CHS (SEQ ID NO:1) reveal four amino acid differences. In 2-PS, Leu202, Met259, Leu261, and Ile343 replace Thr197, Ile254, Gly256, and Ser338, respectively, of CHS. These four substitutions reduce cavity volume from 923 Å^3 in CHS to 274 Å^3 in 2-PS. A model of methylpyrone in the 2-PS cavity, based on the position of acetoacetyl-CoA, emphasizes the volume change compared to the CHS-naringenin complex (Accession No. 1 CGK, SEQ ID NO:69). Leu202 and Ile343 occlude the portion of the 2-PS cavity corresponding to the coumaroyl-binding site of CHS. Replacement of Gly256 in CHS by Leu261 in 2-PS severely reduces the size of the active site cavity. Substitution of Met259 in 2-PS for Ile254 in CHS produces a modest alteration in cavity volume. To examine the functional importance of these amino acid differences, the initiation/elongation cavity of CHS was altered by mutagenesis to resemble that of 2-PS. The resulting mutant proteins were screened for activity using either p-coumaroyl-CoA or acetyl-CoA as starter molecules. Activities of 2-PS, CHS, and the CHS mutants were determined by monitoring product formation using a TLC-based radiometric assay. Assay conditions were 100 mM Hepes (pH 7.0), 30 μM starter-CoA (either p-coumaroyl-CoA or acetyl-CoA), and 60 μM [^14C]-malonyl-CoA (50,000 cpm) in 100 μl at 25° C. Reactions were quenched with 5% acetic acid, extracted with ethyl acetate, and applied to TLC plates and developed. Due to the spontaneous cyclization of chalcone into the flavanone naringenin, activities of CHS are referenced to nanngenin formation.
The x-ray crystal structures of 2-PS (SEQ ID NO:68) and CHS (SEQ ID NO:1) imply that the size of the active site cavity limits polyketide length and modulates folding of the polyketide chain. […] Since the T197L, G256L, and S338Imutants (see SEQ ID NO:1) altered product formation, a CHS triple mutant was generated. […] LC/MS/MS analysis was performed by the Mass Spectroscopy facility of the Scripps Research Institute. Scaled-up assays (2 ml reaction volume) with the CHS T197L/G256L/S338I mutant (see SEQ ID NO:1) and 2-PS (SEQ ID NO:68) were performed. Extracts were analyzed on a Hewlett-Packard HP1100 MSD single quadrupole mass spectrometer coupled to a Zorbax SB-C18 column (5 μm, 2.1 mm×150 mm). HPLC conditions were as follows: gradient system from 0 to 100% methanol in water (each containing 0.2% acetic acid) within 10 mm; flow rate 0.25 ml min^−1. LC/MS/MS data from both reactions were identical: 6-methyl-4-hydroxy-2-pyrone, Rt=5.068 mm; [M-H]^−125; [M-H—CO2]^−81. The numbers show m/z values with relative intensities in parenthesis. The observed fragmentation matches previously published data.

Data set [2] can be described thus: 14C malonyl-CoA assay of CHS mutants, products analysed by TLC and autoradiography (naringenin vs resveratrol). Type of data set: biochemical. As to conditions: TLC autoradiography. The source says: Wild type CHS produces chalcone, which spontaneously converts to naringenin, the position of which is indicated by the arrow on the left. Wild type STS produces resveratrol, the position of which is indicated by the arrow of the right. Function conversion of CHS to STS (i.e., the production of the alternate product from the same intermediate) results in diminished production of naringenin and increased production of resveratrol. Various mutants of CHS produce varying degrees of resveratrol, showing that CHS activity can be altered to STS-like activity to different extents by different mutations.
Mutant CHS (SEQ ID NO: 1) has altered activity based on assays conducted with ^14C malonyl-CoA. Products were extracted with ethyl acetate and analyzed by silica gel thin layer chromatography (TLC) and visualized by autoradiography.

Where [3] appears, read: starter p-coumaroyl-CoA or acetyl-CoA.

As to “2-PS: 2-Pyrone synthase from Gerbera hybrida, SEQ ID NO:68 [Mutant 2-PS, reference compound]”, the product formed result in data set [1] is given as “produces the triketide methylpyrone; also recorded: yields methylpyrone produced from three malonyl-CoA molecules”. Besides, the starter molecule accepted entry in data set [1] (setting [3]) is “accepts acetyl-CoA but does not use p-coumaroyl-CoA”.
Turning to “Wild-type CHS: wild type alfalfa chalcone synthase 2, SEQ ID NO:1 [reference compound]”, the product formed entry in data set [1] was “generates the tetraketide chalcone”. Besides, the “preference for p-coumaroyl-CoA versus acetyl-CoA as starter molecule” value in data set [1] (setting [3]) is reported as 230 fold.

B1: I254M: CHS I254M mutant (protein, listed as Medicago sativa)
chain: MVSVSEIRKAQRAEGPATILAIGTANPANCVEQSTYPDFYFKITNSEHKTELKEKFQRMCDKSMIKRRYMYLTEEILKENPNVCEYMAPSLDARQDMVVVEVPRLGKEAAVKAIKEWGQPKSKITHLIVCTTSGVDMPGADYQLTKLLGLRPYVKRYMMYQQGCFAGGTVLRLAKDLAENNKGARVLVVCSEVTAVTFRGPSDTHLDSLVGQALFGDGAAALIVGSDPVPEIEKPIFEMVWTAQTIAPDSEGAMDGHLREAGLTFHLLKDVPGIVSKNITKALVEAFEPLGISDYNSIFWIAHPGGPAILDQVEQKLALKPEKMNATREVLSEYGNMSSACVLFILDEMRKKSTQNGLKTTGEGLEWGVLFGFGPGLTIETVVLRSVAI
On to B1, for which, in data set [1], the “function and specific activity relative to wild-type enzyme” value is reported as “functionally comparable to wild-type enzyme with a modest reduction in specific activity”; the product formed result is “yields chalcone”.

B2: T197L/G256L/S338I: CHS triple mutant with cavity resembling 2-PS (protein, listed as Medicago sativa)
chain: MVSVSEIRKAQRAEGPATILAIGTANPANCVEQSTYPDFYFKITNSEHKTELKEKFQRMCDKSMIKRRYMYLTEEILKENPNVCEYMAPSLDARQDMVVVEVPRLGKEAAVKAIKEWGQPKSKITHLIVCTTSGVDMPGADYQLTKLLGLRPYVKRYMMYQQGCFAGGTVLRLAKDLAENNKGARVLVVCSEVTAVLFRGPSDTHLDSLVGQALFGDGAAALIVGSDPVPEIEKPIFEMVWTAQTIAPDSEGAIDLHLREAGLTFHLLKDVPGIVSKNITKALVEAFEPLGISDYNSIFWIAHPGGPAILDQVEQKLALKPEKMNATREVLSEYGNMISACVLFILDEMRKKSTQNGLKTTGEGLEWGVLFGFGPGLTIETVVLRSVAI
For B2, the product formed result in data set [1] is “produces only methylpyrone”. Besides, the starter molecule accepted result in data set [1] (setting [3]) is on record as “only accepts acetyl-CoA (or malonyl-CoA) as the starter molecule”.

B3: G256L: CHS G256L mutant (protein, listed as Medicago sativa)
chain: MVSVSEIRKAQRAEGPATILAIGTANPANCVEQSTYPDFYFKITNSEHKTELKEKFQRMCDKSMIKRRYMYLTEEILKENPNVCEYMAPSLDARQDMVVVEVPRLGKEAAVKAIKEWGQPKSKITHLIVCTTSGVDMPGADYQLTKLLGLRPYVKRYMMYQQGCFAGGTVLRLAKDLAENNKGARVLVVCSEVTAVTFRGPSDTHLDSLVGQALFGDGAAALIVGSDPVPEIEKPIFEMVWTAQTIAPDSEGAIDLHLREAGLTFHLLKDVPGIVSKNITKALVEAFEPLGISDYNSIFWIAHPGGPAILDQVEQKLALKPEKMNATREVLSEYGNMSSACVLFILDEMRKKSTQNGLKTTGEGLEWGVLFGFGPGLTIETVVLRSVAI
Regarding B3, the product formed entry in data set [1] is “do not form chalcone”. Also, the “preference for acetyl-CoA as starter molecule” value in data set [1] (setting [3]) is 3 fold.

B4: 2B: alfalfa CHS mutant: A1 (D96A, V98L, V99A, V100M), A2 (T131S, S133T, G134T, V135P, M137L) (protein, UniProt P30074 1-389, looked up, variant D96A V98L V99A V100M T131S S133T G134T V135P M137L)
Chalcone synthase 2: MVSVSEIRKAQRAEGPATILAIGTANPANCVEQSTYPDFYFKITNSEHKTELKEKFQRMCDKSMIKRRYMYLTEEILKENPNVCEYMAPSLDARQAMLAMEVPRLGKEAAVKAIKEWGQPKSKITHLIVCSTTTPDLPGADYQLTKLLGLRPYVKRYMMYQQGCFAGGTVLRLAKDLAENNKGARVLVVCSEVTAVTFRGPSDTHLDSLVGQALFGDGAAALIVGSDPVPEIEKPIFEMVWTAQTIAPDSEGAIDGHLREAGLTFHLLKDVPGIVSKNITKALVEAFEPLGISDYNSIFWIAHPGGPAILDQVEQKLALKPEKMNATREVLSEYGNMSSACVLFILDEMRKKSTQNGLKTTGEGLEWGVLFGFGPGLTIETVVLRSVAI
For B4, in data set [2], the naringenin amount entry was “reduced amounts of naringenin compared to wild type CHS” and the resveratrol amount entry is listed as “little or no resveratrol”.

B5: 14B: alfalfa CHS mutant: V98L, T131S, S133T, G134T, V135P, M137L (protein, UniProt P30074 1-389, looked up, variant V98L T131S S133T G134T V135P M137L)
Chalcone synthase 2: MVSVSEIRKAQRAEGPATILAIGTANPANCVEQSTYPDFYFKITNSEHKTELKEKFQRMCDKSMIKRRYMYLTEEILKENPNVCEYMAPSLDARQDMLVVEVPRLGKEAAVKAIKEWGQPKSKITHLIVCSTTTPDLPGADYQLTKLLGLRPYVKRYMMYQQGCFAGGTVLRLAKDLAENNKGARVLVVCSEVTAVTFRGPSDTHLDSLVGQALFGDGAAALIVGSDPVPEIEKPIFEMVWTAQTIAPDSEGAIDGHLREAGLTFHLLKDVPGIVSKNITKALVEAFEPLGISDYNSIFWIAHPGGPAILDQVEQKLALKPEKMNATREVLSEYGNMSSACVLFILDEMRKKSTQNGLKTTGEGLEWGVLFGFGPGLTIETVVLRSVAI
As to B5, in data set [2], the naringenin amount entry is on record as “reduced amounts of naringenin compared to wild type CHS” and the resveratrol amount entry is “little or no resveratrol”.

B6: S338I: CHS S338I mutant (protein, listed as Medicago sativa)
chain: MVSVSEIRKAQRAEGPATILAIGTANPANCVEQSTYPDFYFKITNSEHKTELKEKFQRMCDKSMIKRRYMYLTEEILKENPNVCEYMAPSLDARQDMVVVEVPRLGKEAAVKAIKEWGQPKSKITHLIVCTTSGVDMPGADYQLTKLLGLRPYVKRYMMYQQGCFAGGTVLRLAKDLAENNKGARVLVVCSEVTAVTFRGPSDTHLDSLVGQALFGDGAAALIVGSDPVPEIEKPIFEMVWTAQTIAPDSEGAIDGHLREAGLTFHLLKDVPGIVSKNITKALVEAFEPLGISDYNSIFWIAHPGGPAILDQVEQKLALKPEKMNATREVLSEYGNMISACVLFILDEMRKKSTQNGLKTTGEGLEWGVLFGFGPGLTIETVVLRSVAI
Turning to B6, the product formed entry was “do not form chalcone” in data set [1] and “form a distinct product using coumaroyl-CoA as a starter molecule” in data set [1] (listed as S3381). Further, the “preference for p-coumaroyl-CoA versus acetyl-CoA as starter molecule” value in data set [1] (setting [3]) is reported as 3 fold.

B7: T197L: CHS T197L mutant (protein, listed as Medicago sativa)
chain: MVSVSEIRKAQRAEGPATILAIGTANPANCVEQSTYPDFYFKITNSEHKTELKEKFQRMCDKSMIKRRYMYLTEEILKENPNVCEYMAPSLDARQDMVVVEVPRLGKEAAVKAIKEWGQPKSKITHLIVCTTSGVDMPGADYQLTKLLGLRPYVKRYMMYQQGCFAGGTVLRLAKDLAENNKGARVLVVCSEVTAVLFRGPSDTHLDSLVGQALFGDGAAALIVGSDPVPEIEKPIFEMVWTAQTIAPDSEGAIDGHLREAGLTFHLLKDVPGIVSKNITKALVEAFEPLGISDYNSIFWIAHPGGPAILDQVEQKLALKPEKMNATREVLSEYGNMSSACVLFILDEMRKKSTQNGLKTTGEGLEWGVLFGFGPGLTIETVVLRSVAI
B7: in data set [1], the product formed result is reported as “do not form chalcone; also recorded: form a distinct product using coumaroyl-CoA as a starter molecule”. Further, in data set [1] (setting [3]), the “preference for p-coumaroyl-CoA versus acetyl-CoA as starter molecule” value worked out at 10 fold.
